The target in assay [1] is T1, human PVRIG-his (AcroBiosystems, Cat NO. PVG-H52H4) (human, UniProt Q6DKI7 41-171, limits assumed).
T1 construct: treated as the same protein; also called human PVRIG-His protein; Human PVRIG-His, Acro C227P1-9ARF1-T4
T1 sequence (looked up): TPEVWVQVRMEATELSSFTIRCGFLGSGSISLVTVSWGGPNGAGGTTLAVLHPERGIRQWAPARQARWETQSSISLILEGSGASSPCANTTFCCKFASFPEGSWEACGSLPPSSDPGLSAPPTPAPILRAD
In words: competition ELISA on coated human PVRIG-his; blocked ligand human PVRL2-mFc. The procedure: The ELISA plate was pre-coated with 100 μL/well of 0.5 μg/mL human PVRIG-his protein (AcroBiosystems, Cat NO. PVG-H52H4). The tested anti-PVRIG antibodies were diluted from the highest concentration of 16 nM (two-fold concentration). The diluted antibodies were mixed with 18 ng/ml human PVRL2-mFc (AcroBiosystems, Cat NO. CD2-H5257) in equal volume, added into the plate (100 μL/well), and incubated with shaking at room temperature for 2.0 hours. […] A HRP substrate, TMB (Thermo, Cat NO. 34029) was added into wells after washing the plate again for color development. After adding a termination solution to terminate the reaction, the absorbance value was read by a microplate reader (MD i3×). An inhibiting curve was drawn with concentration of antibodies as the abscissa and the corresponding OD value as the ordinate. The IC50 value was calculated by using a Four Parameter Logistic Fit (GraphPadPrism9). The smaller the IC50 value, the stronger the ability of the antibodies inhibits the binding between PVRIG and PVRL2. The positive and negative controls are the same as in Example 8.

Assay [2] addresses T2, human PVRIG on FlpinCHO-PVRIG cells (human, UniProt Q6DKI7 41-326).
T2 construct: whole, on cells; also called FlpinCHO-hPVRIG; FlpinCHO-human PVRIG
T2 sequence (looked up): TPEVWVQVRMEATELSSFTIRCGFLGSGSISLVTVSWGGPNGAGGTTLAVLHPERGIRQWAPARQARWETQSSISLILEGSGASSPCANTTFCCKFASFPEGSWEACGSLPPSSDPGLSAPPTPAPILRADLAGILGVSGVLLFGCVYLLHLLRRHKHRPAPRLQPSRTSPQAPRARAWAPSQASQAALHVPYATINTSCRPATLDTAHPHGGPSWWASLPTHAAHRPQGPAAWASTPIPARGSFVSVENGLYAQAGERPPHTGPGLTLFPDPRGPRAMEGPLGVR
Put plainly: FACS, FlpinCHO-PVRIG cells. The protocol: After discarding the cell culture medium, the cells were rinsed with PBS and digested for 8-10 minutes by adding 1 mL Versene (Gibico, 15040-066). The Ham's F12 (Gibico, 21127-022) complete medium containing 10% FBS was then added to terminate the digestion and acquire cell suspension. After counting with a cell counter (Beckman Coulter, Vi-CELL), an appropriate amount of cell suspension was centrifuged at 350×g to remove the supernatant, washed twice with PBS, stained with Zombie violet (Biolegend, 423114) and incubated at room temperature for 20 minutes. After incubation, the cells were added with staining buffer (2% FBS+PBS) to stop staining, centrifuged at 350×g to remove the supernatant, washed twice and resuspended with staining buffer to a density of 2×10⁶ cells/mL. The cells were plated into a 96-well plate (50 μL of cell suspension per well) for further use. The antibodies were diluted from the highest concentration of 46 nM (two-fold concentration) with staining buffer by 3.3-fold serial dilution. The diluted antibodies were added to the well containing 50 μL of cell suspension. The plate was placed on a microplate shaker at 400 rpm for 1 minute to fully mix the antibodies and cells, and then incubated at 4° C. for 30 minutes. After the incubation, the cells were washed twice with staining buffer (200 μL per well) and centrifuged at 350×g for 5 minutes to discard the supernatant. The PE goat anti-human IgG Fc antibody (ebioscience, 12-4998-82) was diluted 250 times with staining buffer, added into the washed wells (100 μL per well), mixed well, and stained at 4° C. for 30 minutes. After staining, the cells were washed twice with staining buffer, finally resuspended with 200 μL staining buffer and analyzed by flow cytometry (BD, Canto II). The stronger the signal, the stronger the ability of the antibodies binds to PVRIG. An antibody binding curve was drawn with concentration of antibodies as the abscissa and the corresponding Mean Fluorescence Intensity (MFI) as the ordinate. The AUC value of the curve was calculated by using a Four Parameter Logistic Fit (GraphPadPrism9).

In assay [3] the target is T3, human PVRIG-mFc protein (Acro, PVG-H5253) (human, UniProt Q6DKI7 41-171, limits assumed).
T3 construct: bought reagent; also called PVRIG-ECD-mFc
T3 sequence (looked up): T1 sequence (looked up)
In words: competition FACS; blocked: human PVRIG-mFc binding to CHO-K1-CD112 cells. The protocol: After incubation, the cells were added with staining buffer (2% FBS+PBS) to stop staining, centrifuged at 350×g to remove the supernatant, washed twice and resuspended with staining buffer to a density of 1×10⁶ cells/mL. The cells were plated into a 96-well plate (50 μL of cell suspension per well) for further use. A working solution of human PVRIG-mFc protein (Acro, PVG-H5253) prepared with staining buffer, 1 μg/mL (four-fold concentration), was added into a 96-well plate (50 μL PVRIG-mFc working solution per well). […] The diluted antibodies were added to the well containing 50 μL of PVRIG-mFc. The plate was placed on a microplate shaker at 400 rpm for 1 minute to fully mix the antibodies and PVRIG-mFc proteins, and then incubated at 4° C. for 30 minutes. After the incubation, the cell suspension prepared above (100 μL) was added into the wells, gently mixed with the pipette tip and incubated at 4° C. for 30 minutes. After the incubation, the cells were washed twice with staining buffer (200 μL per well) and centrifuged at 350×g for 5 minutes to discard the supernatant. The PE goat anti-mouse IgG Fc antibody (Biolegend, 405337) was diluted 250 times with staining buffer, added into the washed wells (100 μL per well), mixed well, and stained at 4° C. for 30 minutes. After staining, the cells were washed twice with staining buffer, finally resuspended with 200 μL staining buffer and analyzed by flow cytometry (BD, Canto II). The weaker the fluorescence signal, the stronger the ability of the antibodies blocks the binding of CHO-K1 human CD112 cells to the PVRIG-mFc protein. An antibody binding curve was drawn with concentration of antibodies as the abscissa and the corresponding Mean Fluorescence Intensity (MFI) as the ordinate. The IC50 value of the antibodies and the AUC value of the binding curve were calculated by using a Four Parameter Logistic Fit (GraphPadPrism9). The smaller the IC50 value and AUC value, the stronger the ability of the antibodies competes with CHO-K1-CD112 cells to bind to human PVRIG-mFc protein.

B1: PVRIG-A117 (VHH)
VHH: EVQVVESGGGLVQAGGSLRLSCTASEHIYDLYIMGWYRQAPGKDRELVATITYTGSIYIADSVKDRFTISRGNAKNTVSLQMSGLKPEDTAVYYCNADPSGLGRKLYWGQGTQVTVSS
notes: tested as VHH-hinge-CH2-CH3 (human IgG1-Fc); not shown: human IgG1 hinge-CH2-CH3
With B1, the “IC50 (read off the curve)” value is about 0.5 nM in assay [1] and about 1 nM in assay [3]. Also, the “EC50 (read off the curve)” value in assay [2] was about 0.3 nM.

B2: PVRIG-A11 (VHH)
VHH: QLQLVESGGGLVQPGGSLRLSCAASGFTDDYYAIGWFRQAPGKEREGVSCISGSGGSTNYEDSVKGRFAISRDNAKNMVYLQMNDLKPEDTAVYYCAADPFWSAPCTGHNDRYFDVWGQGTLVTVSS
notes: as for B1
B2: the figures for the “IC50 (read off the curve)” value in assay [1] and in assay [3] were about 0.8 nM and about 0.9 nM, respectively. Besides, in assay [2], the “EC50 (read off the curve)” value is about 0.1 nM.

(Values after patent US20240343803A1 (SHANDONG SIMCERE BIOPHARMACEUTICAL, published 2024).)
